Measured values reported in the RNAGym collection of RNA variant scans (doi:10.7554/elife.80360).

B1: Hairpin Ribozyme (parent)
chain: GUCCUCUUUCACGUGCGCGUGAAAGAGAGAAGUGAACCAGAGAAACACACGUUGUGGUAUAUUACCUGGUA

Variants of: B1
Experiment: self-cleavage, relative activity (ratio to wild type); higher = more cleavage; co-transcriptional

| Variant | self-cleavage |
| --- | --- |
| U33C A35G | 0.192 |
| U33C A35C | 0.12 |
| G34A G54C | 0.302 |
| G34A G54A | 0.745 |
| U33G U70G | 0.111 |
| G34U G42U | 1.17 |
| A35G U53G | 0.955 |
| A35G U53C | 0.928 |
| U33G C37G | 0.064 |
| U33G C37A | 0.109 |
| U33G C37U | 0.267 |
| G34U U55C | 1.36 |
| G34U A71C | 1.72 |
| U33C C48A | 0.0642 |
| U33C C48G | 0.227 |
| A35C A47C | 0.564 |
| A35G U55G | 0.283 |
| G34U G68A | 1.17 |
| U33G U58G | 0.155 |
| A35U C38U | 0.216 |
| A35U C38A | 0.135 |

| Variant | self-cleavage |
| --- | --- |
| U33C A36U | 0.0847 |
| U33C A36C | 0.199 |
| U33C U67A | 0.119 |
| U33C U67C | 0.129 |
| A35U G40U | 0.134 |
| U33G A35G | 0.126 |
| U33G A49G | 0.135 |
| U33G A49C | 0.114 |
| G34U A41G | 0.857 |
| G34U A41C | 1.55 |
| G34C A49U | 0.743 |
| G34C A49C | 0.186 |
| G34A U63C | 0.0965 |
| G34C G56U | 0.331 |
| G34C G56A | 0.737 |
| G34C G56C | 0.37 |
| A35C U67C | 0.217 |
| G34C G69U | 0.729 |
| G34C G40C | 0.188 |
| A35U G42U | 0.109 |
| G34C C48A | 0.411 |

| Variant | self-cleavage |
| --- | --- |
| G34C C48U | 0.572 |
| A35G U60A | 1.11 |
| G34C U60C | 1.41 |
| G34C U60G | 0.828 |
| G34C U60A | 1.16 |
| A35C C37G | 0.282 |
| G34U G51C | 1.49 |
| A35U A36U | 0.524 |
| G34A C65U | 0.673 |
| G34A G57A | 0.207 |
| A35U U63C | 0.152 |
| A35U C65G | 0.204 |
| A35U C65U | 0.223 |
| U33G A36U | 0.129 |
| U33G A71G | 0.184 |
| A35C A44C | 0.0528 |
| A35C A44U | 0.216 |
| G34U A61U | 1.13 |
| G34U A59C | 0.27 |
| A35U U70A | 0.703 |
| A35U U70C | 0.702 |

| Variant | self-cleavage |
| --- | --- |
| G34U C38A | 0.658 |
| A35C A61C | 0.151 |
| A35C A61G | 0.234 |
| G34U G57U | 1.28 |
| G34C A41G | 1.31 |
| G34C A41C | 1.47 |
| G34U C46U | 0.102 |
| G34U C46G | 0.397 |
| A35G A61C | 0.0992 |
| A35G A61U | 0.245 |
| G34U C48A | 0.497 |
| G34U C48G | 0.371 |
| A35C A71C | 1.27 |
| A35C A59C | 0.258 |
| G34U C37G | 1.01 |
| U33G G34U | 0.0449 |
| A36C A43U | 0.126 |
| A36C A43C | 0.07 |
| A35G G56U | 0.154 |
| A35G G56A | 0.108 |
| U33G A64G | 0.108 |
